Assay results as given in publication PMC12624140, “A conserved chronobiological complex times C. elegans development” (The EMBO Journal, 2025).

T1: biotinylated human CK1δ kinase domain (CK1δ ΔC, residues 1–317) (human, UniProt P48730 1-317, biotin on the N-terminus (Sortase A reaction of biotin-LPETGG with the N-terminal G of GAMDPEF))
T1 construct: N-terminal vector artifact left after TEV cleavage; its first G is joined to the sortase peptide; human casein kinase 1 delta, catalytic domain, residues 1-317; After the sortase reaction the N-terminus should read biotin-LPET-GAMDPEF-; also called biotinylated CK1; not shown: His-GST, N-terminal, cleaved; biotin-LPETGG sortase peptide, N-terminal, kept
T1 sequence: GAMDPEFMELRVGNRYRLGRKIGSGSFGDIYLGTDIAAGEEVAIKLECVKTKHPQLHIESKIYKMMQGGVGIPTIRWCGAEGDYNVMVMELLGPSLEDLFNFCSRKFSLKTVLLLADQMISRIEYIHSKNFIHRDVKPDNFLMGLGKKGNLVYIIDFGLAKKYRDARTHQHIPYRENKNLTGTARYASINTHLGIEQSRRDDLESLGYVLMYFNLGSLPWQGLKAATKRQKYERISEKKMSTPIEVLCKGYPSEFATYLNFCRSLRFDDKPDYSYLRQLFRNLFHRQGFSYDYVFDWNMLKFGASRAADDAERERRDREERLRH

T2: human CK1δ kinase domain (CK1δ ΔC, residues 1–317) (human, UniProt P48730 1-317)
T2 construct: N-terminal vector artifact left after TEV cleavage; human casein kinase 1 delta, catalytic domain, residues 1-317; also called CK1δ∆C; source: E. coli Rosetta (DE3), purified (Ni-NTA, TEV cleavage, GST column, SEC); not shown: His-GST, N-terminal, cleaved
T2 sequence: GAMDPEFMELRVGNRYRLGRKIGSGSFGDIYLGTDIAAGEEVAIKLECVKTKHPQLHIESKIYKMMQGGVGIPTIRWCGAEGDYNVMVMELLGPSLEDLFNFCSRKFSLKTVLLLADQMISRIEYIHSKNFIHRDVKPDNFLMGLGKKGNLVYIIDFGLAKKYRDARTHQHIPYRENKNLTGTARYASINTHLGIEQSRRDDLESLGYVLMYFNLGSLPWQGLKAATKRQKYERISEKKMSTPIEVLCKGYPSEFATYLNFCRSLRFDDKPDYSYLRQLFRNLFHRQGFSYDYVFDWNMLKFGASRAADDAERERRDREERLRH


Tests used:
[1] = target: T1, biotinylated human CK1δ kinase domain …; test: BLI; biotinylated CK1δ ΔC immobilised on streptavidin biosensors, LIN-42 fragments titrated; SEC buffer (50 mM Tris pH 7.5, 200 mM NaCl, 1 mM EDTA, 5% glycerol, 1 mM TCEP, 0.05% Tween-20) with 7.5 mM BSA as printed; Octet-RED96e; kinetic analysis, 2:1 heterogeneous ligand binding model, global fit; conditions: both partners purified
[2] = target: T2, human CK1δ kinase domain (CK1δ ΔC, …); test: pull-down; magnetic streptavidin beads hold biotinylated LIN-42 CK1BD + Tail WT or mutants (5 µM), with and without CK1δ ΔC (5 µM); conditions: both partners purified

Row | Binder | Kd [1] [nM] | binding result [2]
1 | LIN-42 CK1BD (residues 402–475) (domain or fragment, C. elegans, N-terminal vector artifact left after TEV cleavage; LIN-42, C. elegans, residues 402-475 (SYQ/CK1BD-A and LT/CK1BD-B); numbers fit the longest isoform of 598 amino acids; also called truncated fragment of LIN-42 lacking the C-terminal tail; source: E. coli Rosetta (DE3), purified (Ni-NTA, TEV cleavage, second Ni-NTA, SEC); not shown: His-NusA, N-terminal, cleaved) GAMDPEFLSYTQINCLENVHRLLKSQSRPESPAKQDEPFDEKKYPPQTPLTREALTLHTKRFEDEYKDTWCRRLKRLSDDV | 303 | –
2 | biotinylated LIN-42 CK1BD + Tail (residues 402–598), wild type (domain or fragment, C. elegans, biotin on the N-terminus (Sortase A reaction of biotin-LPETGG with the N-terminal G of GAMDPEF), N-terminal vector artifact left after TEV cleavage; its first G is joined to the sortase peptide; LIN-42, C. elegans, residues 402-598 (CK1BD and C-terminal tail); After the sortase reaction the N-terminus should read biotin-LPET-GAMDPEF-; also called biotinylated LIN-42 CK1BD + Tail WT; wild-type LIN-42 protein; not shown: His-NusA, N-terminal, cleaved; biotin-LPETGG sortase peptide, N-terminal, …) GAMDPEFLSYTQINCLENVHRLLKSQSRPESPAKQDEPFDEKKYPPQTPLTREALTLHTKRFEDEYKDTWCRRLKRLSDDVPSSPPAKRTTPIHWTSSSQNHYRTMAPAPPPPPGKNYQITYTPLDDLTDQKSTNTKSDVENVAYPISGSKFSTPMRLSIDGLLPRGATSTGGASPTSGTNSPPVFPKTSSSSSLLMLRDSQN | – | binds
3 | LIN-42 CK1BD + Tail (residues 402–598) (domain or fragment, C. elegans, N-terminal vector artifact left after TEV cleavage; LIN-42, C. elegans, residues 402-598 (CK1BD and C-terminal tail); numbers fit the longest isoform of 598 amino acids; also called wild-type LIN-42 CK1BD + Tail; source: E. coli Rosetta (DE3), purified (Ni-NTA, TEV cleavage, second Ni-NTA, SEC); not shown: His-NusA, N-terminal, cleaved) GAMDPEFLSYTQINCLENVHRLLKSQSRPESPAKQDEPFDEKKYPPQTPLTREALTLHTKRFEDEYKDTWCRRLKRLSDDVPSSPPAKRTTPIHWTSSSQNHYRTMAPAPPPPPGKNYQITYTPLDDLTDQKSTNTKSDVENVAYPISGSKFSTPMRLSIDGLLPRGATSTGGASPTSGTNSPPVFPKTSSSSSLLMLRDSQN | 309 | –
4 | biotinylated LIN-42 CK1BD-∆A + Tail (residues 434–598) (domain or fragment, C. elegans, biotin on the N-terminus (Sortase A reaction of biotin-LPETGG with the N-terminal G of GAMDPEF), N-terminal vector artifact left after TEV cleavage; its first G is joined to the sortase peptide; LIN-42, C. elegans, residues 434-598: CK1BD + Tail without the SYQ/CK1BD-A motif; also called biotinylated CK1BD + Tail mutant, SYQ/CK1BD-A deleted; not shown: His-NusA, N-terminal, cleaved; biotin-LPETGG sortase peptide, N-terminal, kept) GAMDPEFDEKKYPPQTPLTREALTLHTKRFEDEYKDTWCRRLKRLSDDVPSSPPAKRTTPIHWTSSSQNHYRTMAPAPPPPPGKNYQITYTPLDDLTDQKSTNTKSDVENVAYPISGSKFSTPMRLSIDGLLPRGATSTGGASPTSGTNSPPVFPKTSSSSSLLMLRDSQN | – | binds
5 | LIN-42 CK1BD-∆A + Tail (residues 434–598) (domain or fragment, C. elegans, N-terminal vector artifact left after TEV cleavage; LIN-42, C. elegans, residues 434-598: CK1BD + Tail without the SYQ/CK1BD-A motif; source: E. coli Rosetta (DE3), purified (Ni-NTA, TEV cleavage, second Ni-NTA, SEC); not shown: His-NusA, N-terminal, cleaved) GAMDPEFDEKKYPPQTPLTREALTLHTKRFEDEYKDTWCRRLKRLSDDVPSSPPAKRTTPIHWTSSSQNHYRTMAPAPPPPPGKNYQITYTPLDDLTDQKSTNTKSDVENVAYPISGSKFSTPMRLSIDGLLPRGATSTGGASPTSGTNSPPVFPKTSSSSSLLMLRDSQN | ~3000 | –
